Test results taken from patent US20210371539A1 (Genmab, published 2021).

T1: Human CD37 (human, UniProt P11049 1-281)
T1 construct: Endogenous CD37 on the human lymphoma cell line Daudi; also called Leukocyte Antigen CD37; GP52-40
T1 sequence: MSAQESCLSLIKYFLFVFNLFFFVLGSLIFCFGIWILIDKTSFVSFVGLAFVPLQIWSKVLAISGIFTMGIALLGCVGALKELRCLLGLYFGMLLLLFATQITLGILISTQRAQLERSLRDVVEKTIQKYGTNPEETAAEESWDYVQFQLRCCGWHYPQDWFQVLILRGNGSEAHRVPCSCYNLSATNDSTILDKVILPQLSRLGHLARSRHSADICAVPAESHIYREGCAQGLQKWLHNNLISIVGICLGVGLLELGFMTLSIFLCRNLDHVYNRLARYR

T2: Human CD20 (human, UniProt P11836 1-297)
T2 construct: Endogenous CD20 on the human lymphoma cell line Daudi
T2 sequence: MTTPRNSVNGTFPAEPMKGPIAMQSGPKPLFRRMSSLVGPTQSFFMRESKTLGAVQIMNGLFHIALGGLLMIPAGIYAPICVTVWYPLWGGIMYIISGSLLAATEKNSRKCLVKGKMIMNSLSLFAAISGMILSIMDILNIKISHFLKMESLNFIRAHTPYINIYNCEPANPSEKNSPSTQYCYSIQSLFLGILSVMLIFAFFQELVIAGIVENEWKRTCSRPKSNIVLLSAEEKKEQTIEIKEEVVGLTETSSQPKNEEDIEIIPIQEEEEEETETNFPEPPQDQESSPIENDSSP

B1: IgG1-CD37-37.3-E430G (antibody, V domains shown)
VH: QVQVKESGPGLVAPSQSLSITCTVSGFSLTTSGVSWVRQPPGKGLEWLGVIWGDGSTNYHSALKSRLSIKKDHSKSQVFLKLNSLQTDDTATYYCAKGGYSLAHWGQGTLVTVSA
VL: DIQMTQSPASLSVSVGETVTITCRASENIRSNLAWYQQKQGKSPQLLVNVATNLADGVPSRFSGSGSGTQYSLKINSLQSEDFGTYYCQHYWGTTWTFGGGTKLEIKR
modifications: Conjugated to Alexa Fluor 555 or 647 in the FRET assays only (about 3 dyes per antibody, sites not stated).
notes: IgG1 kappa with E430G (EU numbering) in the Fc; also called hexamerization-enhanced CD37 antibody
B2: IgG1-CD37-37.3 (antibody, V domains shown)
VH: B1 VH
VL: DIQMTQSPASLSVSVGETVTITCRASENIRSNLAWYQQKQGKSPQLLVNVATNLADGVPSRFSGSGSGTQYSLKINSLQSEDFGTYYCQHYWGTTWTFGGGTKLEIK
notes: Expressed as IgG1 kappa with wild type Fc; In the FRET assays it was conjugated to Alexa Fluor 555 or 647 (about 3 dye molecules per antibody)
B3: IgG1-CD20-11B8-E430G (antibody, V domains shown)
VH: EVQLVQSGGGLVHPGGSLRLSCTGSGFTFSYHAMHWVRQAPGKGLEWVSIIGTGGVTYYADSVKGRFTISRDNVKNSLYLQMNSLRAEDMAVYYCARDYYGAGSFYDGLYGMDVWGQGTTVTVSS
VL: EIVLTQSPATLSLSPGERATLSCRASQSVSSYLAWYQQKPGQAPRLLIYDASNRATGIPARFSGSGSGTDFTLTISSLEPEDFAVYYCQQRSDWPLTFGGGTKVEIKR
modifications: Conjugated to Alexa Fluor 555 or 647 in the FRET assays only (about 3 dyes per antibody, sites not stated).
notes: IgG1 kappa with E430G (EU numbering) in the Fc; also called Hx-CD20-11B8; Hx-CD20-11B
B4: IgG1-CD20-11B8 (antibody, V domains shown)
VH: B3 VH
VL: EIVLTQSPATLSLSPGERATLSCRASQSVSSYLAWYQQKPGQAPRLLIYDASNRATGIPARFSGSGSGTDFTLTISSLEPEDFAVYYCQQRSDWPLTFGGGTKVEIK
notes: Expressed as IgG1 kappa with wild type Fc; In the FRET assays it was conjugated to Alexa Fluor 555 or 647; also called WT type II CD20 antibody IgG1-CD20-11B8

Columns and labels:
Human CD37 [1] = target: T1, Human CD37; experiment: conclusion from CDC assays on Daudi and WIL2-S cells
Human CD37 [2] = target: T1, Human CD37; experiment: flow cytometry FRET with fluorophore-conjugated antibodies on Daudi cells
Procedure: (§1) 0.5×10⁶ Daudi cells/well were incubated with 10 μg/mL A555-conjugated donor antibodies and/or 10 μg/mL A647-conjugated acceptor antibodies in a total volume of 100 μL RPMI/0.2% BSA in 96-well round-bottom plates (Greiner Bio-One, Cat No 650101) for 15 minutes at 37° C. in a water bath. Cells were washed twice with FACS buffer, pelleted by centrifugation (3 min at 300×g) and resuspended in 200 μL PBST. Mean fluorescence intensities (MFI) were determined by flow cytometry on a FACS Canto II (BD Biosciences) by recording 10,000 events at 585/42 nm (FL2, donor A555) and […] (FL3), both excited at 488 nm, and at 660/20 nm (FL4, acceptor A647), excited at 635 nm. Unquenched donor fluorescence intensity was determined from cells incubated with only A555-conjugated donor antibodies, and non-enhanced acceptor intensity was determined from cells incubated with only A647-conjugated acceptor antibodies. Proximity-induced FRET was determined by measuring the energy transfer between cells incubated with both A555-conjugated donor and A647-conjugated acceptor antibodies. MFI values were used to calculate FRET according to the following equation: energy transfer (ET)=FL3(D,A)−FL2(D,A)/a−FL4(D,A)/b, wherein a=FL2(D)/FL3(D), b=FL4(A)/FL3(A), D is donor, A is acceptor and FLn (D,A)=donor+acceptor. ET values obtained were normalized according to the following equation: normalized energy transfer (%)=100*ET/FL3(D, A).

IgG1-CD37-37.3-E430G = target: B1; experiment: FRET by flow cytometry, A555/A647-conjugated antibodies on Daudi cells; Fc-Fc interaction between cell-bound antibodies
Procedure: as §1, with “ET values obtained were normalized according to the following equation: normalized energy transfer (%)=100*ET/FL3(D, A).” left out

Human CD20 = target: T2, Human CD20; experiment: flow cytometry FRET with fluorophore-conjugated antibodies on Daudi cells
Procedure: as §1

## B1
Human CD37 [1]
  binding result: binds

## B2
Human CD37 [2]
  binding result: binds

## B3
IgG1-CD37-37.3-E430G
  binding result: binds
Human CD20
  binding result: binds

## B4
Human CD20
  binding result: binds
